Measurements as given in patent US20100092457A1 (Chugai, published 2010).

Columns and labels:
[1] = target: T1, full-length human DSG3 (Desmoglein 3) protein (human, UniProt P32926 50-999); assay: hybridoma screening by flow cytometry on CHO cells expressing full-length human DSG3
T1 construct: Full-length protein constantly expressed on transfected cells (DSG3-CHO, DSG3-A549, DSG3-Ba/F3); no signal peptide limits are stated; also called hDSG3; PV antigen
T1 sequence: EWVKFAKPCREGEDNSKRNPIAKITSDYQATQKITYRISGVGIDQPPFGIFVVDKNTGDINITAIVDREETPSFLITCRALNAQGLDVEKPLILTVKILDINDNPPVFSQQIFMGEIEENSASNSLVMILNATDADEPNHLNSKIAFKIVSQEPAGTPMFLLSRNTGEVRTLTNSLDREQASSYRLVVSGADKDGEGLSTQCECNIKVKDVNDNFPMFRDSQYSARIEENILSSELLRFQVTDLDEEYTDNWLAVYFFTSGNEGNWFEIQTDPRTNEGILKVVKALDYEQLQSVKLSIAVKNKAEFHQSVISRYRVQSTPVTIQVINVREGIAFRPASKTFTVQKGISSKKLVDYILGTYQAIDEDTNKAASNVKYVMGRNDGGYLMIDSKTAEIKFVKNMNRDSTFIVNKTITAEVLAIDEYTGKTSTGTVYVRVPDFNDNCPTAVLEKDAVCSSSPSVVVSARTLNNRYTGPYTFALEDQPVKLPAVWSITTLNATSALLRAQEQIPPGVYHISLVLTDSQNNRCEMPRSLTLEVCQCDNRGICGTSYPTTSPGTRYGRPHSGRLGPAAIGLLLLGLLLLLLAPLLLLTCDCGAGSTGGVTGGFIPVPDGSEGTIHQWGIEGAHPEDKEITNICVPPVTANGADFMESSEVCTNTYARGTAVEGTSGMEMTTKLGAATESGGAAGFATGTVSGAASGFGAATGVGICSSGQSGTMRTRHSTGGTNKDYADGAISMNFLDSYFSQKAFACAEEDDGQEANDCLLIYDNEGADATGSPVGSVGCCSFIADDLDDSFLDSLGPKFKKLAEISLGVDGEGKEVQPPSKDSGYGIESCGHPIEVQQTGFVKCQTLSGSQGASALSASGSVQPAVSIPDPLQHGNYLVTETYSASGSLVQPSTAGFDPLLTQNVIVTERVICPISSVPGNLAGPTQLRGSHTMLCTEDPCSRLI
Description: Next, RPMI1640 medium (Invitrogen) was added carefully to dilute PEG 1500, and then PEG 1500 was removed by centrifuging and removing the supernatant. The group of fused cells suspended in RPMI1640 containing 10% FBS was seeded into a 96-well culture plate at 100 μL/well. The following day, RPMI1640 containing 10% FBS, 1×HAT media supplement (SIGMA), and 0.5×BM-Condimed H1 Hybridoma cloning supplement (Roche Diagnostics) (hereinafter referred to as HAT medium) was added at 100 μL/well. On the second or third day, half of the culture solution was replaced with HAT medium, and the culture supernatant from the seventh day was used in the screening in which binding activity to the DSG3 molecule was used as an indicator. The screening was performed by flow cytometric analysis which detects binding to CHO cells that show constant expression of full-length human DSG3. Positive clones obtained by this analysis were monocloned by the limiting dilution method. Specifically, DF120, DF122, DF148, DF151, DF153, DF168, DF331, DF364, and DF366 were established as antibodies that specifically bind to DSG3.
Flow cytometry was used to evaluate the binding of the obtained antibodies to CHO cells that show constant expression of full-length human DSG3. The cells were suspended in FACS Buffer (1% FBS/PBS) at 5×10⁵ cells/mL and dispensed into Multiscreen-HV Filter Plates (Millipore), and the supernatant was removed from this cell suspension solution by centrifugation. After adding to the supernatant-free cells an FACS buffer containing anti-DSG3 monoclonal antibodies which have been diluted to a suitable concentration (3 μg/mL) in the FACS buffer, this was left to stand for 30 minutes on ice to let the cells react with the monoclonal antibodies. After removing the supernatant from this reaction solution by centrifugation, the cells were washed once with FACS buffer. Next, by suspending the cells in a FACS buffer containing FITC-labeled anti-mouse IgG antibody as the secondary antibody, the cells were reacted with the secondary antibody for 30 minutes on ice. […]

[2] = target: T1, full-length human DSG3 (Desmoglein 3) …; assay: flow cytometry

B1: anti-DSG3 monoclonal antibody DF366 (antibody)
heavy: EVQLQQSGPELVKPGASVKISCKASGYTFTDYNMDWVKQSHGESLEWIGYIYPNNGGSGYNQKFKSKATLTVDKSSSTAYMELHSLTSEDSAVYYCARRDSYYGFDMAWFAYWGQGTLVTVSAAKTTPPSVYPLAPGSAAQTNSMVTLGCLVKGYFPEPVTVTWNSGSLSSGVHTFPAVLQSDLYTLSSSVTVPSSTWPSQTVTCNVAHPASSTKVDKKIVPRDCGCKPCICTVPEVSSVFIFPPKPKDVLTITLTPKVTCVVVDISKDDPEVQFSWFVDDVEVHTAQTKPREEQFNSTFRSVSELPIMHQDWLNGKEFKCRVNSAAFPAPIEKTISKTKGRPKAPQVYTIPPPKEQMAKDKVSLTCMITDFFPEDITVEWQWNGQPAENYKNTQPIMDTDGSYFVYSKLNVQKSNWEAGNTFTCSVLHEGLHNHHTEKSLSHSPGK
light: DIQMTQSPASLSASVGETVTITCRPSENIYNNLAWYQQKQGKSPQLLVYVATNLAEGVPSRFSGSGSGTRFSLKINSLQPEDFGKYYCQHSYGTPWTFGGGTKLEIKRADAAPTVSIFPPSSEQLTSGGASVVCFLNNFYPKDINVKWKIDGSERQNGVLNSWTDQDSKDSTYSMSSTLTLTKDEYERHNSYTCEATHKTSTSPIVKSFNRNEC
notes: Mouse IgG1 kappa from hybridoma
[1]
  binding result: binds

B2: mouse IgG2a chimeric DF366 antibody (antibody)
heavy: EVQLQQSGPELVKPGASVKISCKASGYTFTDYNMDWVKQSHGESLEWIGYIYPNNGGSGYNQKFKSKATLTVDKSSSTAYMELHSLTSEDSAVYYCARRDSYYGFDMAWFAYWGQGTLVTVSAAKTTAPSVYPLAPVCGDTTGSSVTLGCLVKGYFPEPVTLTWNSGSLSSGVHTFPAVLQSDLYTLSSSVTVTSSTWPSQSITCNVAHPASSTKVDKKIEPRGPTIKPCPPCKCPAPNLLGGPSVFIFPPKIKDVLMISLSPIVTCVVVDVSEDDPDVQISWFVNNVEVHTAQTQTHREDYNSTLRVVSALPIQHQDWMSGKEFKCKVNNKDLPAPIERTISKPKGSVRAPQVYVLPPPEEEMTKKQVTLTCMVTDFMPEDIYVEWTNNGKTELNYKNTEPVLDSDGSYFMYSKLRVEKKNWVERNSYSCSVVHEGLHNHHTTKSFSRTPGK
light: DIQMTQSPASLSASVGETVTITCRPSENIYNNLAWYQQKQGKSPQLLVYVATNLAEGVPSRFSGSGSGTRFSLKINSLQPEDFGKYYCQHSYGTPWTFGGGTKLEIKRADAAPTVSIFPPSSEQLTSGGASVVCFLNNFYPKDINVKWKIDGSERQNGVLNSWTDQDSKDSTYSMSSTLTLTKDEYERHNSYTCEATHKTSTSPIVKSFNRNEC
notes: made in CHO DG44 cells; also called DF366m
[2]
  binding result: binds

B3: DF366 mouse-human chimeric antibody (antibody)
heavy: not shown
light: DIQMTQSPASLSASVGETVTITCRPSENIYNNLAWYQQKQGKSPQLLVYVATNLAEGVPSRFSGSGSGTRFSLKINSLQPEDFGKYYCQHSYGTPWTFGGGTKLEIKRTVAAPSVFIFPPSDEQLKSGTASVVCLLNNFYPREAKVQWKVDNALQSGNSQESVTEQDSKDSTYSLSSTLTLSKADYEKHKVYACEVTHQGLSSPVTKSFNRGEC
notes: made in CHO DG44 cells; also called DF366c
[2]
  binding result: binds

B4: low-fucose DF366 mouse-human chimeric antibody (antibody, human IgG1, kappa)
heavy: not shown
light: DIQMTQSPASLSASVGETVTITCRPSENIYNNLAWYQQKQGKSPQLLVYVATNLAEGVPSRFSGSGSGTRFSLKINSLQPEDFGKYYCQHSYGTPWTFGGGTKLEIKRTVAAPSVFIFPPSDEQLKSGTASVVCLLNNFYPREAKVQWKVDNALQSGNSQESVTEQDSKDSTYSLSSTLTLSKADYEKHKVYACEVTHQGLSSPVTKSFNRGEC
modifications: low-fucose sugar chain (produced in YB2/0 cells)
notes: differs only in glycosylation (low fucose); also called YB-DF366c
[2]
  binding result: binds

B5: DF364 mouse-human chimeric antibody (antibody)
heavy: not shown
light: EIVLTQSPALMAASPGEKVTITCSVSSSISSSNLHWYQQKSGTSPKPWIYGTSNLASGVPVRFSGSGSGTSYSLTISTMEAEDAATYYCQQWSSYPLTFGAGTKLELKRTVAAPSVFIFPPSDEQLKSGTASVVCLLNNFYPREAKVQWKVDNALQSGNSQESVTEQDSKDSTYSLSSTLTLSKADYEKHKVYACEVTHQGLSSPVTKSFNRGEC
notes: made in CHO DG44 cells; also called DF364c
[2]
  binding result: binds

B6: low-fucose DF364 mouse-human chimeric antibody (antibody, human IgG1, kappa)
heavy: not shown
light: EIVLTQSPALMAASPGEKVTITCSVSSSISSSNLHWYQQKSGTSPKPWIYGTSNLASGVPVRFSGSGSGTSYSLTISTMEAEDAATYYCQQWSSYPLTFGAGTKLELKRTVAAPSVFIFPPSDEQLKSGTASVVCLLNNFYPREAKVQWKVDNALQSGNSQESVTEQDSKDSTYSLSSTLTLSKADYEKHKVYACEVTHQGLSSPVTKSFNRGEC
modifications: low-fucose sugar chain (produced in YB2/0 cells)
notes: differs only in glycosylation (low fucose); also called YB-DF364c
[2]
  binding result: binds

B7: anti-DSG3 monoclonal antibody DF364 (antibody)
heavy: EVQLQQSGTVLARPGASVKMSCKASGYTFASYWIHWVKQRPGQGLEWIGSIYPGNSDTTYNQKFKGKAKLTVVTSASSAYMELSSLTNEDSAVYYCTEPTYYSYDDYYAMDYWGQGTSVTVSSAKTTPPSVYPLAPGSAAQTNSMVTLGCLVKGYFPEPVTVTWNSGSLSSGVHTFPAVLQSDLYTLSSSVTVPSSTWPSQTVTCNVAHPASSTKVDKKIVPRDCGCKPCICTVPEVSSVFIFPPKPKDVLTITLTPKVTCVVVDISKDDPEVQFSWFVDDVEVHTAQTKPREEQFNSTFRSVSELPIMHQDWLNGKEFKCRVNSAAFPAPIEKTISKTKGRPKAPQVYTIPPPKEQMAKDKVSLTCMITDFFPEDITVEWQWNGQPAENYKNTQPIMDTDGSYFVYSKLNVQKSNWEAGNTFTCSVLHEGLHNHHTEKSLSHSPGK
light: EIVLTQSPALMAASPGEKVTITCSVSSSISSSNLHWYQQKSGTSPKPWIYGTSNLASGVPVRFSGSGSGTSYSLTISTMEAEDAATYYCQQWSSYPLTFGAGTKLELKRADAAPTVSIFPPSSEQLTSGGASVVCFLNNFYPKDINVKWKIDGSERQNGVLNSWTDQDSKDSTYSMSSTLTLTKDEYERHNSYTCEATHKTSTSPIVKSFNRNEC
notes: as for B1
[1]
  binding result: binds

B8: DF151 mouse-human chimeric antibody (antibody)
heavy: not shown
light: DIVLTQSPASLAVSLGQSVTISCRASESVEYYGTSLMQWYQQKPGQPPKLLIYGASDVESGVPARFSGSGSGTDFSLNIHPVEEDDIAMYFCQQSRKVPYTFGSGTKLEIKRTVAAPSVFIFPPSDEQLKSGTASVVCLLNNFYPREAKVQWKVDNALQSGNSQESVTEQDSKDSTYSLSSTLTLSKADYEKHKVYACEVTHQGLSSPVTKSFNRGEC
notes: made in CHO DG44 cells; also called DF151c
[2]
  binding result: binds

B9: low-fucose DF151 mouse-human chimeric antibody (antibody, human IgG1, kappa)
heavy: not shown
light: DIVLTQSPASLAVSLGQSVTISCRASESVEYYGTSLMQWYQQKPGQPPKLLIYGASDVESGVPARFSGSGSGTDFSLNIHPVEEDDIAMYFCQQSRKVPYTFGSGTKLEIKRTVAAPSVFIFPPSDEQLKSGTASVVCLLNNFYPREAKVQWKVDNALQSGNSQESVTEQDSKDSTYSLSSTLTLSKADYEKHKVYACEVTHQGLSSPVTKSFNRGEC
modifications: low-fucose sugar chain (produced in YB2/0 cells)
notes: differs only in glycosylation (low fucose); also called YB-DF151c
[2]
  binding result: binds

B10: anti-DSG3 monoclonal antibody DF151 (antibody)
heavy: EVQLQQSGPELVKPGASVKISCKASGYSFTAYYMHWVKQSPEKCLEWIGQINPSTGGTTYNQKFKAKATLTVDKSSSTAYMQLKSLTSEDSAVYYCARWGDSWGQGTTLTVSSAKTTPPSVYPLAPGCGDTTGSSVTLGCLVKGYFPESVTVTWNSGSLSSSVHTFPALLQSGLYTMSSSVTVPSSTWPSQTVTCSVAHPASSTTVDKKLEPSGPISTINPCPPCKECHKCPAPNLEGGPSVFIFPPNIKDVLMISLTPKVTCVVVDVSEDDPDVQISWFVNNVEVHTAQTQTHREDYNSTIRVVSALPIQHQDWMSGKEFKCKVNNKDLPSPIERTISKIKGLVRAPQVYILPPPAEQLSRKDVSLTCLVVGFNPGDISVEWTSNGHTEENYKDTAPVLDSDGSYFIYSKLDIKTSKWEKTDSFSCNVRHEGLKNYYLKKTISRSPGK
light: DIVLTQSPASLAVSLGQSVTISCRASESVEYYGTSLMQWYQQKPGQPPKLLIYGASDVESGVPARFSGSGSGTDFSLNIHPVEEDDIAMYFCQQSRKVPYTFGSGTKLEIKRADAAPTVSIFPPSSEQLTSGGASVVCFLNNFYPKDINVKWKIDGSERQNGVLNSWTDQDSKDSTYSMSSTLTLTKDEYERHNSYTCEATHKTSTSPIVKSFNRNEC
notes: Mouse IgG2b kappa from hybridoma
[1]
  binding result: binds
